Reference: patent US7365239 (Stanford University, dated 2008)

Molecular target: T1, full-length mouse RabGEF1 expressed as GAL-4 activation domain fusion protein (mouse, UniProt Q9JM13 1-491)
T1 construct: mature; Yeast two-hybrid prey in pACT2; also called Rabex-5
Assay: yeast two-hybrid, beta-galactosidase assays
Source text: FIG. 2A-2C. Homology of RabGEF1 with members of a Rab5 binding protein family and direct interaction of RabGEF1 with Ras. (a) Alignment of amino acid sequences of mouse RabGEF1 (SEC ID NO:5) with the Vps9p domains of Vps9p (SEC ID NO:6), Rin1, (SEC ID NO:7), and JC265(SEC ID NO:8). The Vps9p domains of Vps9p, RIN1, and JC265 and the proposed GBH motifs I(SEC ID NO:9), II(SEC ID NO:10), and III(SEC ID NO:11) illustrated here represent those previously described. Identical amino acids or conservative substitutions present in three or four proteins are shaded. […] Different segments of the mouse RabGEF1 protein (shaded areas are Vps9p domains; black areas are putative GBH motifs) were expressed as GAL-4 activation domain fusion proteins, whereas the mouse H-Ras and yeast Ras2p proteins were expressed as DNA-binding fusion proteins. Positive interactions were assessed with both a qualitative colony-lift β-galactosidase filter assay using X-gal as the substrate (Colony color) and a quantitative liquid culture β-galactosidase assay using chlorophenol red-β-D-galactopyranoside as the substrate (Relative β-Gal units). […] The pulled-down RabGEF1 was detected using an anti-RabGEF1 antibody. […]
Yeast two-hybrid assay. […] The entire open reading frame and different segments of the open reading frame of the mouse RabGEF1 cDNA were separately subcloned, in frame, into the pACT2 vector.

T1 sequence (Q9JM13 whole entry, the tested form may be a part): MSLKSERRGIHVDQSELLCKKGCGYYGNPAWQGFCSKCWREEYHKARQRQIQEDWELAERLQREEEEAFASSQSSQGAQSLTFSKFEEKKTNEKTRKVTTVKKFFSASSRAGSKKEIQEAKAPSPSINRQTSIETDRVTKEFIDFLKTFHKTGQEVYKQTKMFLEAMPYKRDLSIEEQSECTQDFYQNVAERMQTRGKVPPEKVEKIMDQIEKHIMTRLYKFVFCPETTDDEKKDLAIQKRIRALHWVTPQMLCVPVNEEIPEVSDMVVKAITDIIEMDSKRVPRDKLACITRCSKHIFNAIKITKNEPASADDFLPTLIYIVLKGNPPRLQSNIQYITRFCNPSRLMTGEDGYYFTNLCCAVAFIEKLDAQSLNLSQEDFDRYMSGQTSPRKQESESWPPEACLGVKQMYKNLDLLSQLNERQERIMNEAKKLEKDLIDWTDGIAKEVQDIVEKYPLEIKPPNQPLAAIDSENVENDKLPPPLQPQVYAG

B1: yeast Ras2p expressed as DNA-binding fusion protein (other, UniProt P04386 1-147, looked up)
chain: MKLLSSIEQACDICRLKKLKCSKEKPKCAKCLKNNWECRYSPKTKRSPLTRAHLTEVESRLERLEQLFLLIFPREDLDMILKMDSLQDIKALLTGLFVQDNVNKDAVTDRLASVETDMPLTLRQHRISATSSSEESSNKGQRQLTVSMPLNKSNIREYKLVVVGGGGVGKSALTIQLTQSHFVDEYDPTIEDSYRKQVVIDDEVSILDILDTAGQEEYSAMREQYMRNGEGFLLVYSITSKSSLDELMTYYQQILRVKDTDYVPIVVVGNKSDLENEKQVSYQDGLNMAKQMNAPFLETSAKQAINVEEAFYTLARLVRDEGGKYNKTLTENDNSKQTSQDTKGSGANSVPRNSGGHRKMSNAANGKNVNSSTTVVNARNASIESKTGLAGNQATNGKTQTDRTNIDNSTGQAGQANAQSANTVNNRVNNNSKAGQVSNAKQARKQQAAPGGNTSEASKSGSGGSCIIS
B1: no binding.
